The text below walks through data of publication PMC9864931 (Vaccines, 2022).

The target of this test is E. coli-produced Wuhan-Hu1 RBD (receptor binding domain of the SARS-CoV-2 spike protein, a.a. 319-542) (SARS-CoV-2 (Wuhan-Hu1), UniProt P0DTC2). In words: ELISA. The following applies: both partners purified. For orientation: In an ELISA, binding on a coated surface is turned into a signal by an enzyme label.

B1: mAb WRAIR-2057 (antibody, V domains shown)
VH: EVQLVQSGAEVKKPGESLKISCKGSGYSFISYWIAWVRQMPGKGLEWMGIIYPGDSDTTYSPSFQGQVTISADKSISTAYLQWSSLKASDTAIYYCARLLYYSDSSPLDSWGQGTLVTVSS
VL: DIQMTQSPSSLSASVGDRVTITCRASQSISTYLNWYQQKPGKAPNLLIYAASSLQSGVPSRFSGSGSGTDFTLTISSLQPEDFATYYCQQSHSTPRTFGPGTKVDIK
With B1, the binding result is given as “binds”.
